Measured values as given in the supplement of paper PMC10567573.
± gives the standard deviation.

Assay: protein stability index of a GFP-peptide fusion (GPS, HEK-293T) (PSI 1-6); higher = more stable
[1] = treatment: DMSO, c terminus: a fixed tail appended
[2] = treatment: MLN4924 1 uM, 8 h, c terminus: a fixed tail appended
[3] = treatment: DMSO, c terminus: native
[4] = treatment: MLN4924 1 uM, 8 h, c terminus: native
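Further: 24-mer peptide tiles fused after GFP, lentivirally expressed, FACS-sorted into six equal bins by GFP/DsRed ratio, decoded by Illumina sequencing, PSI is the read-weighted mean bin number.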

| Sequence | protein stability index [1] | protein stability index [2] | protein stability index [3] | protein stability index [4] |
| --- | --- | --- | --- | --- |
| GLGLPMSRSQNTDMVQKSVSKTLP [CLINT1] | 4.33 ± 0.23 | 4.44 ± 0.099 |  |  |
| GLHYIAFRKVKQMHLNFMDEKDRI [DNAJC4] | 2.54 ± 0.29 | 2.65 ± 0.35 |  |  |
| GLIPTGSGRHPSHSTTPSGPGDEV [ARFIP2] | 5.08 ± 0.17 | 5.04 ± 0.1 |  |  |
| GLTDVSQIITVTVQTGLDQYQQVP [IQUB] | 2.26 ± 0.085 | 2.47 ± 0.23 |  |  |
| GMASFRFPETTFISVTAYQNPQIT [TBX6] | 2.34 ± 0.62 | 2.29 ± 0.11 |  |  |
| GMLSYCDRYSEGIKHVLQTFGPIP [CRYL1] | 2.72 ± 0.5 | 2.196 ± 0.02 |  |  |
| GNPSTNSRVTASSGITIPKPPKPP [SMARCE1] | 4.67 ± 0.32 | 4.7 ± 0.13 |  |  |
| GNTESELKKLAEENPDLQEAYIAK [GDAP1] | 5.51 ± 0.26 | 5.5 ± 0.26 |  |  |
| GPGEPDVRDGFSATFEKILESELL [PSD2] | 3.91 ± 0.25 | 4.03 ± 0.34 |  |  |
| GPLAETTEDFWRMLWEHNSTIVVM [PTPRD] | 2.48 ± 0.42 | 2.4 ± 0.33 |  |  |
| GQFYLDLYPREGKYNHAACFGLQP [NLN] | 1.91 ± 0.16 | 2.09 ± 0.31 |  |  |
| GQLEFRALLFIPRRAPFDLFENKK [HSP90AB1] | 2.22 ± 0.22 |  |  |  |
| GQMSTPETPQPSPPGGSGSEPYKL [HNF4A] | 5.16 ± 0.21 | 5.17 ± 0.19 |  |  |
| GRPPDPADWAVMDVVNYFRTVGFE [SAMD13] | 2.57 ± 0.25 | 2.78 ± 0.3 |  |  |
| GRRAATALLWLSCSIALLRALATS [GNAS] | 2.26 ± 0.37 | 2.02 ± 0.24 |  |  |
| GRRGWKKFYAVLKGTILYLQKDEY [PSD2] | 3 ± 0.4 | 3.32 ± 0.37 |  |  |
| GRVVPESQCQMETKPLAIHPCGDK [ADAMTSL2] | 4.53 ± 0.17 | 4.71 ± 0.46 |  |  |
| GSCQLGGGRGVSTCSTRFVSGGSA [KRT13] | 3.32 ± 0.47 | 3.87 ± 0.21 |  |  |
| GSCSTVGGVGYGDSKDCILEPLSL [ZNF277] | 3.59 ± 0.32 | 3.5 ± 0.24 |  |  |
| GSGDSGDSSEEESHRVVLRPRGKE [LYSMD4] | 5.55 ± 0.19 | 5.35 ± 0.12 |  |  |
| GSPQQPGLSAPHSRQIPAPQGAVL [KISS1] | 4.3 ± 0.15 | 4.61 ± 0.28 |  |  |
| GSQLPKPRMLRESGHGDAHLQEYA [FATE1] | 4.38 ± 0.25 | 4.5 ± 0.11 |  |  |

| Sequence | protein stability index [1] | protein stability index [2] | protein stability index [3] | protein stability index [4] |
| --- | --- | --- | --- | --- |
| GTNAWEEIATKPHEKIGFPAARRC [KLHDC10] | 3.96 ± 0.22 | 3.91 ± 0.37 |  |  |
| GTPSPSRSRDSNSGPEEPLLEEEE [RTN2] | 5.49 ± 0.24 | 5.72 ± 0.27 |  |  |
| GVAVGDWVLSIDGENAGSLTHIEA [PDLIM7] | 3.03 ± 0.5 | 2.96 ± 0.36 |  |  |
| GVCGDRATGFHFNAMTCEGCKGFF [VDR] | 2.28 ± 0.13 | 2.38 ± 0.19 |  |  |
| GVFVGVISFGQLSDRFGRKKVYLT [SLC22A15] | 2.82 ± 0.43 | 2.7 ± 0.39 |  |  |
| GVIQSVSSWKHGSGTQYVSTRQTQ [C18orf25] | 3.19 ± 0.11 | 3.52 ± 0.35 |  |  |
| GVPPLKLCKNLNREAQQYSEALAS [GLIPR2] | 3.89 ± 0.44 | 3.96 ± 0.14 |  |  |
| GVPVQPVLIRYPNSLDTTSWAWRG [LPCAT4] | 2.28 ± 0.26 | 2.34 ± 0.31 |  |  |
| GVSFQAISSMADFWDFAQGPLLDS [PKD2L1] | 2.4 ± 0.29 | 2.87 ± 0.32 |  |  |
| GYNLRALAEGVSASLHTLLGDPCP [HDAC6] | 2.6 ± 0.31 | 2.64 ± 0.2 |  |  |
| GYSDRDGYGRDRDYSDHPSGGSYR [RBMX] | 4.6 ± 0.31 | 4.81 ± 0.45 |  |  |
| HCHKRRTRSCSSASSRSQQSSKRS [CLK3] | 5.19 ± 0.26 | 5.06 ± 0.063 |  |  |
| HCMAPPLLHLDLKPANILLDAHYH [RIPK4] | 2.27 ± 0.23 | 2.38 ± 0.22 |  |  |
| HCVTSDPATSPLVLAIPRRLRVEL [TRIM35] | 2.3 ± 0.37 | 2.13 ± 0.44 |  |  |
| HEAFKDELKTFRLKTRSWAGERSR [CDC25B] | 3.57 ± 0.3 | 3.8 ± 0.22 |  |  |
| HEVKDNYIPVIKRALNSVPVIIAA [RHOBTB3] | 2.34 ± 0.34 | 2.18 ± 0.17 |  |  |
| HEVREFKQLIYRVRRTDDTPVVLV [RIT1] | 2.2 ± 0.29 | 2.24 ± 0.16 |  |  |
| HFHPTVIGESMYGDFEEAFDHLQN [TENT5C] | 3.82 ± 0.064 | 3.9 ± 0.37 |  |  |
| HFWGEKNHGFEVLYHSVKQGPIST [FCHO1] | 2.44 ± 0.52 | 2.48 ± 0.43 |  |  |
| HGDPIPKVEFTEEEIKTWGTVFQE [TPH1] | 4.87 ± 0.2 | 4.86 ± 0.16 |  |  |
| HIDIVKELIKWRAAIVVNGHGMTP [FEM1B] | 2.15 ± 0.53 | 2.17 ± 0.26 |  |  |
| HKKKSPGEKPHRCPQCGKCFARKS [ZNF449] | 3.86 ± 0.55 | 4.23 ± 0.43 |  |  |

| Sequence | protein stability index [1] | protein stability index [2] | protein stability index [3] | protein stability index [4] |
| --- | --- | --- | --- | --- |
| HLTVHKRIHTGERPYMCKECGKAF [ZNF8] | 2.73 ± 0.28 | 3.27 ± 0.38 |  |  |
| HMNVEALPEWISCLIQKAQWTVGK [RNF180] | 2.32 ± 0.51 | 2.19 ± 0.34 |  |  |
| HPRGWNDHVHILDTETFTWSQPIT [KLHDC2] | 2.42 ± 0.29 | 2.71 ± 0.54 |  |  |
| HQPPYIIAVLPRYVEIRTFEPRLL [VPS39] | 2.61 ± 0.75 | 2.38 ± 0.37 |  |  |
| HRDLKPENLLLASKLKGAAVKLAD [CAMK2A] | 3.67 ± 0.22 | 3.62 ± 0.091 |  |  |
| HRPSTLQAASTPQAEEDWTCTIL [OAS1] |  |  | 4.18 ± 0.17 | 4.45 ± 0.14 |
| HRRDGKWQNVHFHCSGAPVAPLQ [CAMK2B] |  |  | 2.39 ± 0.31 | 2.6 ± 0.34 |
| HSNGPTDLSMKGGASTTSTTPSAL [NOL4L] | 4.94 ± 0.19 | 4.94 ± 0.3 |  |  |
| HSPFSSESRALSTSSNLGSQYQCE [TBX5] | 4.4 ± 0.35 | 4.53 ± 0.22 |  |  |
| HSQRTALHLAAQKALRTISTGRI [INVS] |  |  | 3.08 ± 0.9 | 2.36 ± 0.086 |
| HSSDEDEDEDDEEDFEDDDEWED [WASL] |  |  | 3.19 ± 0.17 | 3.33 ± 0.47 |
| HTPGGQNQEILLPGGITSHQLLGL [TNXB] | 3.33 ± 0.22 | 3.47 ± 0.31 |  |  |
| HTTIVATRHYRPPEVILELGWAQP [CLK3] | 2.26 ± 0.26 | 2.23 ± 0.16 |  |  |
| HVLALGLGIYIGKRLSTPSASTY [BNIP3L] |  |  | 3.43 ± 0.86 | 3.2 ± 0.64 |
| HYYKENDPSVRLKIASLLGLLSKT [INTS4] | 2.05 ± 0.31 | 2.18 ± 0.23 |  |  |
| IAAATSVLKTRFSYAFPKEFPYRM [CCNC] | 2.08 ± 0.12 | 2.58 ± 0.51 |  |  |
| IAEDGTKEIESQGSIPGFLISSGM [TAF7L] | 4.25 ± 0.28 | 4.21 ± 0.38 |  |  |
| IASIADVCESMKEQLLVLVEWAKY [HNF4A] | 2.42 ± 0.36 | 2.15 ± 0.38 |  |  |
| ICMAQIAYSGNTSNLSYHLEKNHP [ZBED1] | 2.3 ± 0.24 | 2.38 ± 0.26 |  |  |
| ICRVFSTSPAKDSLSFEDFLDLLS [CIB1] | 2.34 ± 0.25 | 2.2 ± 0.1 |  |  |
| IDSSSSWWTNWVIPAISAVAVALM [CYB5A] | 2.64 ± 0.14 | 2.69 ± 0.15 |  |  |
